Experimental data as given in the Human Domainome abundance scans (Beltran et al. 2025).

B1: Chromodomain-helicase-DNA-binding protein 4, residues 444 to 496; numbered along this chain, Q14839 (parent)
chain: EDDHHMEFCRVCKDGGELLCCDTCPSSYHIHCLNPPLPEIPNGEWLCPRCTCP

Variants of: B1
Assay: abundance fitness (aPCA) (normalised: wild type 0, dead -1); higher = more abundant; growth selection in yeast, the domain comes from the species named
Conditions: Homo sapiens

Abundance fitness: each site, then its substitutions
L18: N -0.489, F -0.581, P -1.07, M 0.037, C -0.761, T -0.373, K -0.517, R -0.394, S -0.717, D -1.3, I -0.357, V -0.117, G -0.732, Q -0.397, Y -0.751, A -0.682, H -0.66, W -0.738, E -0.744
C20: K 0.095, Y 0.066, I 0.103, H 0.168, R 0.13, Q 0.17, D 0.012, N 0.14, E 0.136, M 0.017, V -0.035, L 0.012, F -0.035, W 0.069, A 0.099, P 0.096, S 0.093, G 0.083
G16: N -0.186, P -1.18, Q -0.559, R -0.424, W -0.906, L -0.7, V -0.842, H -0.831, F -0.556, A -0.558, Y -0.83, D -0.275, M -0.579, K -0.143, S -0.279, C -0.985, T -0.432, I -0.74, E 0.019
L19: H -0.189, A 0.118, C -0.075, Q -0.157, R -0.314, F -0.262, K -0.033, Y -0.276, M 0.041, D -0.354, G -0.488, I 0.1, N -0.116, S -0.291, T 0.037, P -0.484, V -0.056, E -0.632
T23: P -0.738, M -0.077, R 0.038, C -0.074, Q -0.07, W -0.2, Y -0.084, D -0.305, I -0.042, N 0.093, S -0.044, E 0.047, A -0.119, H -0.107, K -0.031, L -0.195, F -0.221, V -0.075
C21: W -1.12, M -0.955, A -0.71, D -0.875, N -0.787, K -0.795, G -0.722, T -0.902, L -1.07, R -0.762, E -0.239, Q -0.76, I -0.853, S -0.994, H -0.745, P -0.829, Y -0.871, F -1.02, V -1.05
G15: Q -0.126, V -0.115, Y -0.251, T 0.012, N -0.179, S -0.061, I -0.397, F -0.263, P -0.154, L -0.486, W -0.317, K 0.08, M -0.102
C24: G -0.894, F -1.01, E -1.09, A -0.739, I -0.706, H -0.909, K -0.702
D22: H -0.02, A 0.032, M -0.26, N -0.085, G -0.011, I -0.399, W -0.254, Q -0.067, K 0.129, T 0.074, P -0.095, Y -0.112, F 0.005, E -0.055, V -0.159, L -0.067, R -0.058
E17: P -0.657, R -0.123, L -0.535, N -0.077, F -0.395, C -0.382, S -0.184, Y -0.644, D -0.232, A -0.309, I -0.206, M -0.098, Q -0.146, V -0.215, K 0.117, H -0.906, W -0.576, T 0.015, G -0.289
